Laboratory results from US20130309248A1 (CRUCELL HOLLAND B V, published 2013).

Tests used:
Test in all cases: cell-based or functional assay
[1] = target: HA of virus A/New Caledonia/20/1999 (H1N1) (influenza A virus (H1N1))
[2] = target: HA of virus A/Brisbane/59/2007 (H1N1) (influenza A virus (H1N1))
[3] = target: HA of virus A/Solomon Islands/IVR-145 (H1N1) (influenza A virus (H1N1))
[4] = target: T1, HA of virus A/Wisconsin/67/2005 (H3N2) (influenza A virus (H3N2))
[5] = target: T2, HA of virus A/Hiroshima/52/2005 (H3N2) (influenza A virus (H3N2))
[6] = target: T3, HA of virus A/Panama/2000/1999 (H3N2) (influenza A virus (H3N2))
[7] = target: T4, HA of virus A/Johannesburg/33/94 (H3N2) (influenza A virus (H3N2))
[8] = target: T5, HA of virus A/Mallard/Netherlands/12/2000 (H7N3) (influenza A virus (H7N3))
[9] = target: T6, HA of virus A/Chick/Germany/N/49 (H10) (influenza A virus (H10))
[10] = target: T1, HA of virus A/Wisconsin/67/2005 (H3N2); remark: listed apart in the source
[11] = target: T2, HA of virus A/Hiroshima/52/2005 (H3N2); remark: listed apart in the source
[12] = target: T3, HA of virus A/Panama/2000/1999 (H3N2); remark: listed apart in the source
[13] = target: T4, HA of virus A/Johannesburg/33/94 (H3N2); remark: listed apart in the source
[14] = target: T5, HA of virus …; remark: listed apart in the source
[15] = target: T6, HA of virus A/Chick/Germany/N/49 (H10); remark: listed apart in the source

B1: CR8041 (antibody, V domains shown)
VH: QVQLVQSGAEVKKPGASVKVSCQASGYTFTSFGLSWVRQAPGQGPEWMGWISAYNGEIKYAQKFQGRVSMTTDTSTRTAYMEVRSLRPDDTAVYYCAREPPLYFSSWSLDF
VL: EIVLTQSPGTLSLSPGERATLSCRASQSVSSNYLAWFQQKPGQAPRLLIYGASRRATGIPDRFSGSGSGTDFTLTISRLEPEDFAVYYCQQYDSSPRT
[1]
  Neutralization titer SK50: > 40 µg/mL
[2]
  Neutralization titer SK50: > 40 µg/mL
[3]
  Neutralization titer SK50: > 40 µg/mL
[4]
  Neutralization titer SK50: 3.99 µg/mL
[5]
  Neutralization titer SK50: 4.75 µg/mL
[6]
  Neutralization titer SK50: 2.99 µg/mL
[7]
  Neutralization titer SK50: 1.69 µg/mL
[8]
  Neutralization titer SK50: 1.1 µg/mL
[9]
  Neutralization titer SK50: 25 µg/mL
[10]
  SK50 titer: 3.3 µg/mL
[11]
  SK50 titer: 3.5 µg/mL
[12]
  SK50 titer: 5 µg/mL
[13]
  SK50 titer: 1.6 µg/mL
[14]
  SK50 titer: 38 µg/mL
[15]
  SK50 titer: 37.2 µg/mL
